# Reference: patent US7410949 (Hoffmann-La Roche, dated 2008)
# *1 amine or outer side, *2 acyl side, *3 side chain or, on linkers, in order; H or OH if unused. [ ]: non-standard residue; d: D form. Pqa = N-piperazin-1-yl-4(3H)-quinazolinone-3-acetic acid, O=C(Cn1cnc2ccc(N3CCN([*:1])CC3)cc2c1=O)[*:2]; Phe(3,4,5-F3) = N[C@@H](Cc1cc(F)c(F)c(F)c1)C(=O)O; 1Nal = N[C@@H](Cc1cccc2ccccc12)C(=O)O; Nle = CCCC[C@H](N)C(=O)O
# Key:
# [1] = target: Y1R; assay: cell-based or functional assay
# [2] = target: Y4R; assay: cell-based or functional assay
# Y1R, sequence (P25929 whole entry): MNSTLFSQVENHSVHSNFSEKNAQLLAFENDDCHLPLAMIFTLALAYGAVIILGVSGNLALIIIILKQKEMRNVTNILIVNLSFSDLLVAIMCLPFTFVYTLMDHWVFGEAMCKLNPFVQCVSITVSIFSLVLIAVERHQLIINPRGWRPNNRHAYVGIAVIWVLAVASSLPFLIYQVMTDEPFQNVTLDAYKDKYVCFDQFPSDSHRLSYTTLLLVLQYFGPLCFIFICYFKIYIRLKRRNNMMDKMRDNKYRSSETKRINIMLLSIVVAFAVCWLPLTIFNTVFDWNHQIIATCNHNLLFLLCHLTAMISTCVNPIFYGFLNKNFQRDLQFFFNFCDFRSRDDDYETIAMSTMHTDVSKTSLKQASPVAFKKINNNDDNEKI
Binder,Y1R EC50(nM) FLIPR [1] [nM],Y4R EC50(nM) FLIPR [2] [nM]
IKRHYLNLVTRQRY ((D)Tyr at PYY position 27 (residue 3 of the second part); Pqa moiety between the two parts; C-terminal amide) [H-Ile-Lys-Pqa-Arg-His-(D)Tyr-Leu-Asn-Leu-Val-Thr-Arg-Gln-Arg-Tyr-NH2],,> 5000
Ac-I[Nle][Pqa]RH[1Nal]LNLVTRQRY-NH2 (SMILES CCCC[C@H](NC(=O)[C@@H](NC(C)=O)[C@@H](C)CC)C(=O)N1CCN(c2ccc3ncn(CC(=O)N[C@@H](CCCNC(=N)N)C(=O)N[C@@H](Cc4c[nH]cn4)C(=O)N[C@@H](Cc4cccc5ccccc45)C(=O)N[C@@H](CC(C)C)C(=O)N[C@@H](CC(N)=O)C(=O)N[C@@H](CC(C)C)C(=O)N[C@H](C(=O)N[C@H](C(=O)N[C@@H](CCCNC(=N)N)C(=O)N[C@@H](CCC(N)=O)C(=O)N[C@@H](CCCNC(=N)N)C(=O)N[C@@H](Cc4ccc(O)cc4)C(N)=O)[C@@H](C)O)C(C)C)c(=O)c3c2)CC1) [Ac-Ile-Nle-Pqa-Arg-His-(1)Nal-Leu-Asn-Leu-Val-Thr-Arg-Gln-Arg-Tyr-NH2],,> 5000
IKRHYLNLVTRQRY (N-methyl His at PYY position 26 (residue 2 of the second part); Pqa moiety between the two parts; C-terminal amide) [H-Ile-Lys-Pqa-Arg-(NMe)His-Tyr-Leu-Asn-Leu-Val-Thr-Arg-Gln-Arg-Tyr-NH2],,> 5000
H-IK[Pqa]AHYLNLVTRQRY-NH2 (SMILES CC[C@H](C)[C@H](N)C(=O)N[C@@H](CCCCN)C(=O)N1CCN(c2ccc3ncn(CC(=O)N[C@@H](C)C(=O)N[C@@H](Cc4c[nH]cn4)C(=O)N[C@@H](Cc4ccc(O)cc4)C(=O)N[C@@H](CC(C)C)C(=O)N[C@@H](CC(N)=O)C(=O)N[C@@H](CC(C)C)C(=O)N[C@H](C(=O)N[C@H](C(=O)N[C@@H](CCCNC(=N)N)C(=O)N[C@@H](CCC(N)=O)C(=O)N[C@@H](CCCNC(=N)N)C(=O)N[C@@H](Cc4ccc(O)cc4)C(N)=O)[C@@H](C)O)C(C)C)c(=O)c3c2)CC1) [H-Ile-Lys-Pqa-Ala-His-Tyr-Leu-Asn-Leu-Val-Thr-Arg-Gln-Arg-Tyr-NH2],,> 5000
IKRHYLNLVTRQRY ((D)Arg at PYY position 25 (residue 1 of the second part); Pqa moiety between the two parts; C-terminal amide) [H-Ile-Lys-Pqa-(D)Arg-His-Tyr-Leu-Asn-Leu-Val-Thr-Arg-Gln-Arg-Tyr-NH2],,> 5000
IKRHYLNLVTRQRY (N-methyl Arg at PYY position 25 (residue 1 of the second part); Pqa moiety between the two parts; C-terminal amide) [H-Ile-Lys-Pqa-(NMe)Arg-His-Tyr-Leu-Asn-Leu-Val-Thr-Arg-Gln-Arg-Tyr-NH2],,> 5000
IKRHYLNLVTRQRY ((D)His at PYY position 26 (residue 2 of the second part); Pqa moiety between the two parts; C-terminal amide) [H-Ile-Lys-Pqa-Arg-(D)His-Tyr-Leu-Asn-Leu-Val-Thr-Arg-Gln-Arg-Tyr-NH2],,> 5000
"Ac-I[Nle][Pqa]RH[Phe(3,4,5-F3)]LNLVTRQRY-NH2 (SMILES CCCC[C@H](NC(=O)[C@@H](NC(C)=O)[C@@H](C)CC)C(=O)N1CCN(c2ccc3ncn(CC(=O)N[C@@H](CCCNC(=N)N)C(=O)N[C@@H](Cc4c[nH]cn4)C(=O)N[C@@H](Cc4cc(F)c(F)c(F)c4)C(=O)N[C@@H](CC(C)C)C(=O)N[C@@H](CC(N)=O)C(=O)N[C@@H](CC(C)C)C(=O)N[C@H](C(=O)N[C@H](C(=O)N[C@@H](CCCNC(=N)N)C(=O)N[C@@H](CCC(N)=O)C(=O)N[C@@H](CCCNC(=N)N)C(=O)N[C@@H](Cc4ccc(O)cc4)C(N)=O)[C@@H](C)O)C(C)C)c(=O)c3c2)CC1) [Ac-Ile-Nle-Pqa-Arg-His-(3,4,5trifluorPhe)-Leu-Asn-Leu-Val-Thr-Arg-Gln-Arg-Tyr-NH2]",,> 5000
IKRHYLNLVTRQRY ((D)Leu at PYY position 28 (residue 4 of the second part); Pqa moiety between the two parts; C-terminal amide) [H-Ile-Lys-Pqa-Arg-His-Tyr-(D)Leu-Asn-Leu-Val-Thr-Arg-Gln-Arg-Tyr-NH2],,> 5000

# Second part, the binder after the results:
Y1R EC50(nM) FLIPR [1] [nM],Y4R EC50(nM) FLIPR [2] [nM],Binder
> 5000,> 5000,IKRHYLNLVTRQRY (N-methyl Leu at PYY position 28 (residue 4 of the second part); Pqa moiety between the two parts; C-terminal amide) [H-Ile-Lys-Pqa-Arg-His-Tyr-(NMe)Leu-Asn-Leu-Val-Thr-Arg-Gln-Arg-Tyr-NH2]
> 5000,> 5000,IKRHYLNLVTRQRY (N-methyl Thr at PYY position 32 (residue 8 of the second part); Pqa moiety between the two parts; C-terminal amide) [H-Ile-Lys-Pqa-Arg-His-Tyr-Leu-Asn-Leu-Val-(NMe)Thr-Arg-Gln-Arg-Tyr-NH2]
> 5000,> 5000,IKRHYLNLVTRQRY (N-methyl Tyr at PYY position 36 (residue 12 of the second part); Pqa moiety between the two parts; C-terminal amide) [H-Ile-Lys-Pqa-Arg-His-Tyr-Leu-Asn-Leu-Val-Thr-Arg-Gln-Arg-(NMe)Tyr-NH2]
> 5000,> 5000,IKRHYLNLVTRQRY (N-methyl Leu at PYY position 30 (residue 6 of the second part); Pqa moiety between the two parts; C-terminal amide) [H-Ile-Lys-Pqa-Arg-His-Tyr-Leu-Asn-(NMe)Leu-Val-Thr-Arg-Gln-Arg-Tyr-NH2]
,> 5000,IKRHYLNLVTRQRY (N-methyl Ile at PYY position 3 (residue 1 of the first part); Pqa moiety between the two parts; C-terminal amide) [H-NMeIle-Lys-Pqa-Arg-His-Tyr-Leu-Asn-Leu-Val-Thr-Arg-Gln-Arg-Tyr-NH2]
